# Results from the supplement of paper PMC12042874.
# ± gives the uncertainty stated by the source.
# Assay: amyloid nucleation score (Sup35N fusion, yeast selection) (log enrichment); library NNK2; higher = more nucleation; inactive = no reads after selection
# Method in brief: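 Three technical output replicates were used for random libraries. Psi-negative yeast expressing peptides of 20 random codons fused to Sup35N were induced with 100 μM copper sulfate for 24 hours and grown 7 days at 30°C on medium lacking adenine and uracil, and input and output plasmid inserts were Illumina-sequenced, excluding sequences with under 100 input reads. The nucleation score is the DiMSum log enrichment of output over input reads, centred on the mode score of non-aggregating sequences.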
row,Substance,amyloid nucleation score
1,LSRAN,inactive
2,LSSLYFSLFNYYLFNRFIFN,inactive
3,LSSSMSSSRASQDFGFLGVH,0.877 ± 0.48
4,LSVCLAKPTCDVSF,0.201 ± 0.33
5,LSVSHMCEADLQYRTLFLSK,-0.606 ± 0.37
6,LSVTGDTWRMVSRYSHECKD,0.859 ± 0.52
7,LSVTPIFGRNTDTLESGL,-0.093 ± 0.55
8,LSYPTVYLATLVYFLQMWAV,-0.285 ± 0.37
9,LSYRHNGPHPGGYNCTGSRV,inactive
10,LSYTSDSRPAGF,-0.347 ± 1.1
11,LSYVFIVECPSSAGMLPRPF,4.01 ± 0.13
12,LTDNS,0.147 ± 0.61
13,LTFPA,-0.206 ± 1.1
14,LTHQRRRLMMCI,0.283 ± 0.32
15,LTIPDFRSGRRRVAQRDLVV,-0.157 ± 0.37
16,LTIVLQLGLL,8.52 ± 0.066
17,LTNEI,-0.515 ± 1
18,LTNNHYIKPFRSRIRVMVMY,4.79 ± 0.069
19,LTRYLLWLLVESGFLGRSGV,-0.21 ± 0.79
20,LTSCGLVWCSIRRPGMKALV,-0.077 ± 0.76
21,LTSWKDFRHN,0.4 ± 0.5
22,LTVLLSMK,-0.911 ± 0.5
23,LTWSVVRKYSIALRCGGR,-0.002 ± 0.63
24,LTYILFGYFMASCFMCFFVS,0.138 ± 1.1
25,LVAKHSG,0.693 ± 0.27

row,Substance,amyloid nucleation score
1,LVCYV,0.611 ± 0.46
2,LVEAFYNVWRRTSAHCETVC,-0.272 ± 0.55
3,LVEGCILSRHQESVNLRFCL,1.22 ± 0.29
4,LVFDACTPEEVGG,0.735 ± 0.27
5,LVGMSATYPTHNWFKVRTYF,-0.104 ± 0.76
6,LVGSVWFEISFDSQMYSFG,inactive
7,LVGWSGLLTDALEFLLSKDV,-0.592 ± 0.76
8,LVHYPIYFLDNGFRHGDWEG,-0.187 ± 0.55
9,LVIALSFCY,3.57 ± 0.069
10,LVIKCFCA,6.476 ± 0.031
11,LVILEINVPKNIVSQRNYVP,8.045 ± 0.03
12,LVLAASTFQYSGRGYASDML,1.49 ± 0.29
13,LVLWM,1.68 ± 0.36
14,LVLYVSKMPYMSEPRSIILR,0.64 ± 0.58
15,LVNMGSGPALYLYPLSIMVK,-1.42 ± 1.1
16,LVNSGKLVIPPAVSWWYNWF,-0.763 ± 0.37
17,LVNVIS,0.2 ± 0.35
18,LVQGNTFE,1.19 ± 0.44
19,LVQYMTMRCVFSNIGGMTSG,0.263 ± 0.64
20,LVRDHRNRVGFCQMSQ,0.248 ± 0.44
21,LVRTLAYCASKNNFVRL,-0.038 ± 0.63
22,LVSERGSWVGLRFCSRSSVT,0.359 ± 0.56
23,LVSKSERER,5.451 ± 0.053
24,LVSLLFFGSVSLAKCQWN,-0.526 ± 0.79
25,LVSYQVFSWSEPENSV,-0.239 ± 0.79

row,Substance,amyloid nucleation score
1,LVTECNRDGTLDG,-0.582 ± 0.49
2,LVVLLMRWSLPLNVESGMF,-0.105 ± 1.1
3,LVVNASLRWIRHWSKGF,4.515 ± 0.035
4,LVYLELTELQLCDAFAKVKN,0.133 ± 0.25
5,LWFITCNMSGHWLLTERR,4.39 ± 0.064
6,LWFQVTFDRICLQITTHTEL,4.86 ± 0.075
7,LWFYFFRDYLIGPMWNKIVI,-0.898 ± 1.1
8,LWGMGGAWEPERETLVV,-0.268 ± 0.63
9,LWQLPIILWFLRNCVMRNPA,-0.723 ± 0.79
10,LWRSVAKIVSPN,-1.74 ± 0.78
11,LWSSKYYKPPYWDNVVCSII,-0.699 ± 1
12,LWVGQLTTY,0.199 ± 0.45
13,LYAVRSALYFCTVYFGSSNR,3.18 ± 0.13
14,LYDTNVKWVFSCYSKACSCK,-0.323 ± 0.79
15,LYIALIFSISHGWCIAFRLT,-0.214 ± 1.1
16,LYKYLCAIIKNVDKVVPLRM,-0.904 ± 0.49
17,LYLKFYLCTGKDNDWNT,inactive
18,LYLSVPQYYFSCLFSMVEVQ,-1.07 ± 0.61
19,LYMAFREMQSWQHCW,-0.227 ± 0.49
20,LYPCNLELVQQHFLVMTNLG,-0.034 ± 0.23
21,LYPLCYGL,-0.829 ± 1.1
22,LYPSFEDTLRWPSPRGMKMC,0.182 ± 1.1
23,LYQNSTILWLCCLWPVPYSG,9.921 ± 0.076
24,LYRAGVAFVCTYFVNSGEF,2.61 ± 0.13
25,LYRRIRCFIYPFCKGVRCLC,-1.77 ± 0.62

row,Substance,amyloid nucleation score
1,LYRTYLYTDYFTKMHV,-1.16 ± 0.76
2,LYSLEKTCQVELCRRISTLL,-1.35 ± 0.75
3,LYSVGFRLTS,inactive
4,LYTSSATHLIRP,inactive
5,LYVCPSASWESCPGGIKRMG,inactive
6,LYVTQTS,-0.053 ± 0.35
7,LYYAVQFLKIRTLLPECSLQ,0.16 ± 0.43
8,LYYGNPEKIPADGLSSHIMQ,3.7 ± 0.063
9,LYYTCDIHTGRWWVLLVHGV,4.28 ± 0.11
10,MAACCHKLWLTCFDTVRMFN,-0.478 ± 0.41
11,MAESELQICMFYTMGCWDMV,-0.165 ± 0.42
12,MANVADMIVDGLM,0.525 ± 0.49
13,MAVKRGIHRQADPGITWDTE,5.17 ± 0.082
14,MCCFRNSNVGAYRSSSIVNG,-0.403 ± 1
15,MCGKFNTSSCIEIYRDSEFM,-0.432 ± 0.23
16,MCLMYANWERFDQKNGLR,4.12 ± 0.12
17,MCMGFRRPLTRTFFRTLCAR,0.684 ± 0.54
18,MCMLDRRYQTVMSKVWPNLT,0.224 ± 0.33
19,MCPNGPAVIGMLFRLHTLFK,0.168 ± 0.35
20,MCSQGCTHFRVAWPLRACRW,3.85 ± 0.072
21,MCVLECFDAGSGYLR,1.06 ± 0.59
22,MDGVHFVRYQM,0.181 ± 0.45
23,MDIFRYVCNCYKSSNKKVFG,-1.25 ± 0.78
24,MDNTWNLCDSFYSCSGDLNT,-0.595 ± 0.35
25,MDSIHFV,-0.029 ± 0.41

row,Substance,amyloid nucleation score
1,MDSILVNVYVVNW,9.259 ± 0.042
2,MDVGYCRNAVHRMLGMNCMM,4.95 ± 0.062
3,MEEGRS,0.525 ± 0.28
4,MEFSAKFIYFS,1.48 ± 0.11
5,MEPSVIRF,-0.271 ± 0.55
6,MESRILRNIYFCLTCKPSQW,2.24 ± 0.17
7,MEVNLKVKSLCQWGT,6.791 ± 0.045
8,MEWKSGL,0.534 ± 0.64
9,MFCKLRFSVFLAWVDVK,0.356 ± 0.6
10,MFEIIPFPTSISDRGSTIYM,-0.855 ± 0.55
11,MFGGPTFNMRWFFTFFSRGR,4.46 ± 0.046
12,MFILGVRPMISKSHNVPTQR,-0.171 ± 0.42
13,MFKDNLLIVLFMLLMGLMRW,3.45 ± 0.069
14,MFKSCQEGIKHWNNPT,3.59 ± 0.051
15,MFLILMCNCSYVGILRPNST,6.672 ± 0.03
16,MFRGVQN,0.899 ± 0.53
17,MFVVKNRGCVM,-0.16 ± 0.3
18,MFWSTSYRNNFWTPIWEKLG,-0.597 ± 0.39
19,MFYFRFLKGTSQMIKAAMRS,-0.059 ± 0.49
20,MGAYEGDRVQMLEHADFRKN,-0.355 ± 0.74
21,MGCYFSSLSTTHKGAVDVQL,0.13 ± 0.24
22,MGDTRNGYFSRMLFYTDCPW,0.037 ± 0.43
23,MGFSRTLYIRKDIFLFVLHL,-0.759 ± 0.64
24,MGMFKTCVHLNCVYR,5.229 ± 0.05
25,MGSLSHYRAQDRLREQLWLW,0.458 ± 0.19

row,Substance,amyloid nucleation score
1,MGVLEGLSWVSRNKISGVLQ,-0.191 ± 0.55
2,MHASDDMLKCWYKCAEVRPA,1.29 ± 0.31
3,MHEEP,1.29 ± 0.23
4,MHRFRMSLVLRRGSGLVGWF,-0.081 ± 1.1
5,MHSLCRM,-1.24 ± 0.53
6,MIAVV,0.861 ± 0.2
7,MIFSEFGAEVIVGWFVVSVG,-0.9 ± 0.76
8,MINFHKHGLTI,-0.482 ± 0.35
9,MINYCREIQFRM,3.63 ± 0.12
10,MIPKVFSIRKSVGIYWNAEY,-1.04 ± 0.39
11,MIQHEKQMWWADNSYP,0.483 ± 0.24
12,MIQHICELLG,-0.317 ± 0.32
13,MKGNGCNIFRQGTWRDSFAD,-0.715 ± 0.41
14,MKLYSISELLFKFLLHSLCA,inactive
15,MLDVCGVLHLPRRSLIAFVA,1.27 ± 0.21
16,MLFGFFGIPRGSRVLFSNV,inactive
17,MLFLMGPVWTCFKICNSLLT,0.333 ± 0.23
18,MLFNLYISTSTLVDRS,1.23 ± 0.17
19,MLGRKHSWVA,1.67 ± 0.33
20,MLGRVKTKVACYG,0.409 ± 0.64
21,MLNNRLNPLFARESGELLGA,0.871 ± 0.15
22,MLNSVLAQAMRH,1.28 ± 0.53
23,MLPIRRIMQQFHGKPYNCYT,inactive
24,MLRGSRWPSSGTFSCDDSKR,-0.038 ± 0.45
25,MLSFHLSVVAETMTWWSTRY,0.857 ± 0.19

row,Substance,amyloid nucleation score
1,MLSIVNCNGSRVGYWTDS,5.85 ± 0.08
2,MLWVYWLGCHVRSYNLGYLR,-0.255 ± 0.63
3,MLWWLYLTDYSISGYNVGKM,0.433 ± 0.74
4,MLYSWKFPEVASGNLKCRLE,-0.24 ± 0.32
5,MMDRV,-0.092 ± 0.65
6,MMLSYILR,0.223 ± 0.77
7,MMMLLG,0.505 ± 0.13
8,MNHTDGQHCFVSWRCLDGWR,0.705 ± 0.66
9,MNKCFFTSRSEG,inactive
10,MNLSGVQVAMFSSQPVALTG,0.097 ± 0.63
11,MNRPVHSDYVYSFSLEFVVV,-0.089 ± 1.1
12,MNWHTSYCLFDVRAKVAGNV,-0.393 ± 1.1
13,MNYRCKYAQDTHLSEQSSQE,-0.799 ± 0.33
14,MPAFWSWSERGLSVRILGPA,3.05 ± 0.084
15,MPGMVTSCTVFCNQFKMETC,6.457 ± 0.061
16,MPPFGNDCTDREDVCMGRFV,inactive
17,MQTCYSDQMDFVYEAYYCTW,1.7 ± 0.1
18,MRKMRTMNAQWSWIIVCSFW,0.151 ± 0.63
19,MRLFVEFSVVLFYSFFNPFF,inactive
20,MRMGMLKMTFFGCSPDLKRL,-0.277 ± 0.38
21,MRQSNDWLFFLTNGTKCGEL,-0.162 ± 0.46
22,MRSDYTSWVWVCVFMLTLGV,-0.679 ± 0.32
